Residue numbers refer to the chain shown, from its start.
B1: mAb 65 (antibody, V domains shown)
VH: QVQLVESGGGVVQPGRSLRLSCAASGFTFSGYGMHWVRQAPGKGLDWVAIIYYNGNNKYYADSVKGRFTISRDNSKNTLYLQMNSLRAEDTAVYYCARGGGYNWFDPWGQGTLVIVSS
VL: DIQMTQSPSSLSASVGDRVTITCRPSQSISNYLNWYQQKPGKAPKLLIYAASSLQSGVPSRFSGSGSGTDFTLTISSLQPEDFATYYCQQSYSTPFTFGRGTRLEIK
B2: mAb 83 (antibody, V domains shown)
VH: B1 VH
VL: DIQMTQSPSSLSASVGDRVTITCRPSQIIINYLNWYQQKPGKAPKLLIYAASSLQSGVPSRFSGSGSGTDFTLTISSLQPEDFATYYCQQSYSTPFTFGRGTRLEIK
B3: mAb 81 (antibody, V domains shown)
VH: B1 VH with V5A, N54D, N56K, I115T
VL: B2 VL with I28T, I30S, K39D, F96I
B4: mAb 54 (antibody, V domains shown)
VH: EVQLEESGGGLVQPGGSLRLSCAASGFTFSRYSMNWVRQAPGKGLEWFSYISSSSRTIYYADSVKGRFTMSRDNAKNSLYLQMNSLRDEDTAVYFCARGDYYDSEGMDVWGKGTTVTVSS
VL: DIQMTQSPSTLSASVGDRVTITCRASQTITTWLAWYQQKPGKAPKLLIYKASTLESGVPSRFSGSGSGTEFTLTISSLQPDDFATYHCQQYKTFSYTFGQGTKLDIK
B5: mAb 46 (antibody, V domains shown)
VH: EGQLVESGGGLVQPGGSLRLSCVASGFTLSSYTLNWVRQAPGKGLEWVSYISSTSRTIYYSDSVKGRFTISRDNAKNSLYLQMNSLRDEDTALYYCAREDYYDSSGFDYWGQGTLVTVSS
VL: AIRMTQSPSSFSASTGDRVTITCRASQGISSYLAWYQQKPGKAPKLLIYTASTLQSGVPSRFSGSGSGTDFTLTIRSLQSEDFATYYCQQYYSYPRTFGQGTKVEIK
B6: mAb 49 (antibody, V domains shown)
VH: B5 VH with G2V, Q13P, S30R, L34M, K43Q, V48I, M83V, Y109C
VL: B5 VL with S30F, S31N, T50S, A51T, S77G, F83L, Y94F, E105D
B7: mAb 51 (antibody, V domains shown)
VH: B5 VH with G2V, V23A, L34M, T54S, T69S, Y109N
VL: B5 VL
B8: mAb 42 (antibody, V domains shown)
VH: QAQLVQSGSELKKPGASVKVSCKASGYTFTKHSMNWVRQAPGQGLEWMGWINTNTGNPTYAQGFTGRFVFSLDTSVTTAYLQISSLKAEDTAVYYCAREGDYDFWSGFFNFDYWGQGTLVTVSS
VL: DIQMTQSPSSLSASVGDRVTITCRASQGIRNDLGWYQQKPGKAPKRLIYAASSLQSGVPSRFSGSGSGAEFTLTISSLQPEDFATYYCLQHNSYPRTFGQGTKVEIK
B9: mAb 55 (antibody, V domains shown)
VH: QVQLEQSGAEVKKPGASVKVSCKTSGYIFANYDINWVRQATGQGLEWMGWMNPKSGKAGYAQKFQGRVTMTSNTPINTAYMELSSLRSEDTAVYYCAREGHYDFWRGFYSFDYWGQGILVTVSS
VL: B8 VL with A50T, A69T, Y87F, H91Y, S93T, R96Y, V104L
B10: mAb 52 (antibody, V domains shown)
VH: QVQLVQSGAEVKKPGASVKVSCKASGYTFTSHDINWVRQATGQGLEWMGWLNPNSGKTGYAQKFQGRVTMARDTSMYTADMELSSLRFEDTAVYYCARVGHYDMWPGFFSFDYWGQGTLVTVSS
VL: B8 VL with V19I, T20I, G28D, G66R, A69T, Q79H, N92R, R96Y, K103N, V104L
B11: mAb 53 (antibody, V domains shown)
VH: QVQLVQSGAEVKKPGASVKVSCKASGYTFTSYDINWVRQATGQGLEWMGWMNPKSGKTGYAQKFQGRITMTRNTPISTVYMDLSSLRSEDTAVYYCAREGHYDFWTGYYSFDYWGQGTLVTVSS
VL: B8 VL with K39T, A69T, N92Y, R96Y, V104L
B12: mAb 47 (antibody, V domains shown)
VH: B8 VH
VL: B8 VL with A69T
B13: mAb 44 (antibody, V domains shown)
VH: B8 VH with K31R, S33A, T77S, Q82K, A97V
VL: B8 VL with Y36F, K45T
B14: mAb 50 (antibody, V domains shown)
VH: B8 VH with K31R, S33A
VL: B8 VL with Y36F, K45T
B15: mAb 236 (antibody, V domains shown)
VH: QVKLVESGGGVVQPGRSLRLSCVASGFTFSGYGMHWVRQAPGKGLEWVAIIYYDGKNKYYADSAKGRFTVSRDNSKNTLYLQLNSLRAEDTAVYYCVRGPGYNWFDSWGQGTLVTVSS
VL: EIVLTQSPDFQSVTPKEKVTITCRASQSIGSNLHWYQQKPDQSPKLLIKYTSQSFSGVPSRFSGSGSGTDFTLTINSLEAEDAATYYCHQSSSLPYTFGQGTKLEIK
notes: VH/VL only
B16: mAb 243 (antibody, V domains shown)
VH: B15 VH with V2G, G42N, A64V, V70I, T78M, L83M, A88V, S107P
VL: B15 VL with S28N, N32S, Y50H, D70A
notes: VH/VL only
B17: mAb 242 (antibody, V domains shown)
VH: B15 VH with V2G, A40V, G42N, A64V, V70I, T78M, L83M, A88V, S107P
VL: B15 VL with S28N, N32S, Y50L
notes: VH/VL only
B18: mAb 245 (antibody, V domains shown)
VH: B15 VH with A61V, A64V, V70I, S107L, S117A
VL: B15 VL with N32S, T51A
notes: VH/VL only
B19: mAb 272 (antibody, V domains shown)
VH: EIQLVESGGGLVQPGESLKLSCAGSGFTFSVSAMHWVRQASGKGLEWVGRIRNKANSYATAYAASVKGRFTLSRDDSKNTAYLQMNSLKTEDTAVYYCSSYYYLSGTYYNYWGQGTLVTVSS
VL: B8 VL with G28V, Y49H, A50S, S56G, A69T, L89Q, S93V, Y94N, R96C, V104L
notes: VH/VL only
B20: mAb 270 (antibody, V domains shown)
VH: B19 VH with A63D, K78R
VL: B8 VL with G28V, Y49H, A50S, S56G, A69T, L89Q, S93V, Y94N, R96C, V104L
notes: VH/VL only
B21: mAb 271 (antibody, V domains shown)
VH: B19 VH with N86D
VL: B8 VL with G28V, Y49H, A50S, S56G, A69T, L89Q, S93V, Y94N, R96C, V104L
notes: VH/VL only
B22: mAb 90 (antibody, V domains shown)
VH: EVQLVESGGGLVQPGGSLKLSCAASGFTFSGSAMHWVRQASGKGLEWVGRIRTKPNSYATSYAASVKDRFTISRDDSKNTAYLQMNSLKTEDTAVYYCIRGELEPWGQGTLVTVSS
VL: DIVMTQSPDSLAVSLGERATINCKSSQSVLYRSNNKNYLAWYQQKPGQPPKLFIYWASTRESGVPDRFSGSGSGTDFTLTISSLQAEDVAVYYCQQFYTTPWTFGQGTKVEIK
B23: mAb 152 (antibody, V domains shown)
VH: QVQLVQSGAEVKKPGASVKVSCKASGYTFTAYHTHWVRQAPGQGLEWMGWIYPKSGRTTYTQKFQGRVTMTRDTSISTVYMELSRLKSDDTAVYYCARVGALLFDYWGQGTLVTVSS
VL: not shown
B24: mAb 109 (antibody, V domains shown)
VH: QVQLVESGGGVVQPGRSLRLSCVASGFPFRSYGMHWVRQAPGKGLEWVAFIWYDGSNKYYADSVRGRFTISRDNFKKMVYLQMNSLRAEDTAVYYCARDLAGIYAFDVWGQGTVVTVSS
VL: EIVMTQSPATLSVSPGERATLSCRASQSVSSNLAWYQQKPGQAPRLLIYGASTRATGIPARFSGSGSGTEFTLTVSSLQSEDFAIYYCQQYNNWRPLTFGGGTKVEIK

Target: T1, human CD3 expressed on cells (human, UniProt P07766 23-207; P04234 22-171; P09693 23-182)
T1 construct: whole, on cells; CD3 complex on Jurkat cells and on human primary T cells
T1 sequence (P07766 23-207, chain 1 of 3): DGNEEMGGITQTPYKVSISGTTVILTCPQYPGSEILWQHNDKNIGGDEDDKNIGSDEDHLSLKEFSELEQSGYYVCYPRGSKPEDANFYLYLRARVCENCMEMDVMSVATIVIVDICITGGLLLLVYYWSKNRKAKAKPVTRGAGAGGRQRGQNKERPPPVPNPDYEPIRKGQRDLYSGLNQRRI
T1 sequence (P04234 22-171, chain 2 of 3): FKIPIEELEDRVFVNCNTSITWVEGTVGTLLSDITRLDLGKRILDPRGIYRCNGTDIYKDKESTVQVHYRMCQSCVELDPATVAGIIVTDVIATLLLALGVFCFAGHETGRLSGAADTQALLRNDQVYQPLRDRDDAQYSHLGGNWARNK
T1 sequence (P09693 23-182, chain 3 of 3): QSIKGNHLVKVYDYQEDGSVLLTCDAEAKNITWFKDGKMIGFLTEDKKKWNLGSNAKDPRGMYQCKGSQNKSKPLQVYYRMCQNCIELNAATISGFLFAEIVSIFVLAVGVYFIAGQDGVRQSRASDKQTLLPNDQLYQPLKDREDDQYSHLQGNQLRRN
Assay: flow cytometry, 25 nM
Protocol: (§1) Purified antibodies were confirmed to bind CD3 expressed on cells using the CytoFLEX S or LX flow cytometers (Beckman Coulter). Antibodies were diluted to 25 nM in FACS buffer (PBS+2% FBS) and were incubated with CD3-expressing cells for 30 minutes at 4° C. […] The median fluorescence intensity of the binding signal for each antibody was normalized to the isotype control to obtain a fold over isotype value. An antibody with a fold over isotype (FOI) of ≥10 was considered to be positive for binding.

Human primary T Cell Binding (FOI) | Jurkat Cell Binding (FOI) | Binder
199 FOI | 184 FOI | B1
173 FOI | 161 FOI | B2
158 FOI | 165 FOI | B3
98.5 FOI | 111 FOI | B4
96.9 FOI | 107 FOI | B5
191 FOI | 178 FOI | B6
102 FOI | 99.8 FOI | B7
96.2 FOI | 111 FOI | B8
104 FOI | 151 FOI | B9
185 FOI | 181 FOI | B10
34.8 FOI | 44.6 FOI | B11
136 FOI | 112 FOI | B12
110 FOI | 131 FOI | B13
86.4 FOI | 92.5 FOI | B14

Target: T2, cynomolgus monkey CD3 expressed on cyno primary T cells (cynomolgus monkey, UniProt Q95LI5 22-198; Q95LI8 22-171; Q95LI7 23-181)
T2 construct: whole, on cells; CD3 complex on purified cynomolgus monkey CD3 pan T cells; also called cyno CD3
T2 sequence (Q95LI5 22-198, chain 1 of 3): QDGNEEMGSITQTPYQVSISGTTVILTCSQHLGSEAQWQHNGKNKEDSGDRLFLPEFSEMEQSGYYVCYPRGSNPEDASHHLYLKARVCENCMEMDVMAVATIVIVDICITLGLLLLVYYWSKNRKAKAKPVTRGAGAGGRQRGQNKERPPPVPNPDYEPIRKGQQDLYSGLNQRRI
T2 sequence (Q95LI8 22-171, chain 2 of 3): as the sequence (P04234 22-171, chain 2 of 3) above, with I5V, N15K, I20V, S32T, D33N, I34N, T64A, S74N, V83L, H141R counted along it
T2 sequence (Q95LI7 23-181, chain 3 of 3): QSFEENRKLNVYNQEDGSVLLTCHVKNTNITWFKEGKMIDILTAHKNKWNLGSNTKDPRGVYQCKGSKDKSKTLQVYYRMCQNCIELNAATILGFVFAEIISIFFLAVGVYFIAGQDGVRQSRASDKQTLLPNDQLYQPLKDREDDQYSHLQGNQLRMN
Assay: flow cytometry, cyno primary T cells
Protocol: as §1

Binder | binding result
B15 | no binding (tested: FOI <10 (FOI >=10 = positive); 25 nM)
B16 | no binding (tested: FOI <10 (FOI >=10 = positive); 25 nM)
B17 | no binding (tested: FOI <10 (FOI >=10 = positive); 25 nM)
B18 | no binding (tested: FOI <10 (FOI >=10 = positive); 25 nM)
B19 | no binding (tested: FOI <10 (FOI >=10 = positive); 25 nM)
B20 | no binding (tested: FOI <10 (FOI >=10 = positive); 25 nM)
B21 | no binding (tested: FOI <10 (FOI >=10 = positive); 25 nM)

Target: T3, cynomolgus monkey CD3 expressed on primary T cells (cynomolgus monkey, UniProt Q95LI5 22-198; Q95LI8 22-171; Q95LI7 23-181)
T3 construct: whole, on cells; CD3 complex on purified cynomolgus monkey T cells; also called cyno CD3
T3 sequence (Q95LI5 22-198, chain 1 of 3): as the sequence (Q95LI5 22-198, chain 1 of 3) above
T3 sequence (Q95LI8 22-171, chain 2 of 3): as the sequence (P04234 22-171, chain 2 of 3) above, with I5V, N15K, I20V, S32T, D33N, I34N, T64A, S74N, V83L, H141R counted along it
T3 sequence (Q95LI7 23-181, chain 3 of 3): as the sequence (Q95LI7 23-181, chain 3 of 3) above
Assay: flow cytometry, 25 nM, cyno primary T cells
Protocol: as §1

binding result | Binder
no binding (tested: FOI >=10 = positive) | B1
no binding (tested: FOI >=10 = positive) | B2
no binding (tested: FOI >=10 = positive) | B3
no binding (tested: FOI >=10 = positive) | B22
no binding (tested: FOI >=10 = positive) | B4
no binding (tested: FOI >=10 = positive) | B23
no binding (tested: FOI >=10 = positive) | B24
no binding (tested: FOI >=10 = positive) | B5
no binding (tested: FOI >=10 = positive) | B6
no binding (tested: FOI >=10 = positive) | B7
no binding (tested: FOI >=10 = positive) | B8
no binding (tested: FOI >=10 = positive) | B9
no binding (tested: FOI >=10 = positive) | B10
no binding (tested: FOI >=10 = positive) | B11
no binding (tested: FOI >=10 = positive) | B12
no binding (tested: FOI >=10 = positive) | B13
no binding (tested: FOI >=10 = positive) | B14

Reference: patent US20230295310A1 (ABCELLERA BIOLOGICS, published 2023)
